Results as given in US20120301469A1 (Ablynx, published 2012).
Changes are numbered by the printed parent chain.

Columns and labels:
[1] = target: T1, hRSV FTM-NN (membrane anchorless form of the Long fusion protein, 70 kDa) (human respiratory syncytial virus, …, UniProt P12568 26-524); experiment: ELISA on immobilized FTM-NN, periplasmic extract 1:10
T1 construct: also called FTM-NN (Long); hRSV FTM-protein

[2] = target: protein F of hRSV strain Long, on virus (inactivated hRSV Long, Hytest #8RSV79; RSV Long LM-2, ATCC VR-26) (human respiratory syncytial virus, …, UniProt P12568 26-574); experiment: cell-based or functional assay
[3] = target: T2, protein F of hRSV strain B-1 (on RSV B-1-infected Hep2 cells and on virus) (human respiratory syncytial virus, …, UniProt P13843 26-574); experiment: cell-based or functional assay
[4] = target: T2, protein F of hRSV strain B-1 (on RSV …); experiment: cell ELISA on RSV B-1-infected Hep2 cells, periplasmic extract 1:50
[5] = target: T2, protein F of hRSV strain B-1 (on RSV …); experiment: cell-based or functional assay; remark: listed apart in the source
[6] = target: T2, protein F of hRSV strain B-1 (on RSV …); experiment: cell ELISA on RSV B-1-infected Hep2 cells, periplasmic extract 1:200
[7] = target: T1, hRSV FTM-NN (membrane anchorless form …); experiment: SPR (Biacore), FTM-NN amine-coupled on CM5 chip, 1:1 Langmuir fit
[8] = target: T1, hRSV FTM-NN (membrane anchorless form …); experiment: competition ELISA on FTM-NN, competitor 101F Fab, purified Nanobody

B1: Nanobody 1A6 (VHH)
VHH: EVQLVESGGGLVQAGGSLRLSCAASGRTFSSYAMGWFRQAPGKEREFVAAIWWSGGSTYYADSVKGRFTMSRDNAKNTVYLEMNNLKPEDTAVYYCAADTDSSNSGSYLYTWAYDYWGQGTQVTVSS
notes: also called PMP1A6; PRSV1A6
Binding Long 1:10 PE (Fold blanc) [1]: 4.2 fold blanc
Neutralization Long IC50 [2]: 4500 nM
Neutralization B-1 IC50 [3]: > 10000 nM
Binding Hep2-B-1 (% control) 1:50 PE [4]: 57 % control
micro-neutralization of RSV B-1 [5]: > 10 µM
Binding Hep2-B-1 (% control) 1:200 PE [6]: 39 % control

B2: Nanobody 13E12 (VHH)
VHH: EVQLVESGGGLVQAGGSLRLSCAASGRTFSRYIMGWFRQAPGKEREFVGAISRSGDITSFADFVKGRFTMSRDNAKNTLYLQMNSLEPEDTAVYSCAANSDTYYIYSDIVVPERYDYWGQGTQVTVSS
notes: also called PMP13E12; PRSV13E12
Binding Long 1:10 PE (Fold blanc) [1]: 3.7 fold blanc
Neutralization B-1 IC50 [3]: 12300 nM
Binding Hep2-B-1 (% control) 1:50 PE [4]: 97 % control
Kd [7]: 1.5 nM
koff [7]: 0.00016 s⁻¹
kon [7]: 110000 M⁻¹ s⁻¹
Binding Hep2-B-1 (% control) 1:200 PE [6]: 75 % control
IC50 [8]: 3.52 nM

B3: Nanobody 20C1 (VHH)
VHH: EVQLVESGGGLVQAGGSLRLSCAASGRTFSSFAMGWFRQAPGKEREFVAAISWSGGSTYYADSVKGRFTISGDNAKNTMYLQMNSLKPEDTAVYYCAADSEILNSGAYYYPWAYVYWGQGTQVTVSS
notes: also called PMP20C1; PRSV20C1
Binding Long 1:10 PE (Fold blanc) [1]: 2.7 fold blanc
Neutralization Long IC50 [2]: 5290 nM
Neutralization B-1 IC50 [3]: > 10000 nM
Binding Hep2-B-1 (% control) 1:50 PE [4]: 37 % control
micro-neutralization of RSV B-1 [5]: > 10 µM
Binding Hep2-B-1 (% control) 1:200 PE [6]: 35 % control

B4: Nanobody 13A1 (VHH)
VHH: EVQLVESGGGLVQPGGSLRLSCAASGLTLDYYALGWFRQAPGKEREGVSCISSADHSTTYADSVKGRFTISWDNAKNTVYLQMNSLKPEDTAVYYCAADPALGCYSGNYYPRYDYWGQGTQVTVSS
notes: also called PMP13A1; PRSV13A1
Binding Long 1:10 PE (Fold blanc) [1]: 2.9 fold blanc
Neutralization B-1 IC50 [3]: 6160 nM
Binding Hep2-B-1 (% control) 1:50 PE [4]: 84 % control
Kd [7]: 0.61 nM
koff [7]: 0.00035 s⁻¹
kon [7]: 570000 M⁻¹ s⁻¹
Binding Hep2-B-1 (% control) 1:200 PE [6]: 65 % control
IC50 [8]: 4.23 nM

B5: Nanobody 19E2 (VHH)
VHH: B4 VHH with A54S, S57T, A61T, V79L, N108S, Y115F
notes: also called PMP19E2; PRSV19E2
Binding Long 1:10 PE (Fold blanc) [1]: 3.5 fold blanc
Neutralization B-1 IC50 [3]: 4550 nM
Binding Hep2-B-1 (% control) 1:50 PE [4]: 87 % control
Kd [7]: 0.52 nM
koff [7]: 0.00024 s⁻¹
kon [7]: 460000 M⁻¹ s⁻¹
Binding Hep2-B-1 (% control) 1:200 PE [6]: 58 % control
IC50 [8]: 2.93 nM

B6: Nanobody 13B4 (VHH)
VHH: EVQLVESGGGLVQAGGSLRLSCAASGFTFDDYAIGWFRQAPGKEREAVSCISSSDGSTYYADSVKGRFTISSDNAKNMVYLQMNSLKPEDTAVYYCAADLLRTAVGCLDYRGTYYPRTTMDYRGKGTLVTVSS
notes: also called PMP13B4; PRSV13B4
Binding Long 1:10 PE (Fold blanc) [1]: 2.7 fold blanc
Neutralization B-1 IC50 [3]: > 15000 nM
Binding Hep2-B-1 (% control) 1:50 PE [4]: 75 % control
Binding Hep2-B-1 (% control) 1:200 PE [6]: 56 % control
IC50 [8]: 3.69 nM

B7: Nanobody 1E4 (VHH)
VHH: EVQLVESGGGLVQAGGSLRLSCEASGRTFSSYGMGWFRQAPGKEREFVAAVSRLSGPRTVYADSVKGRFTISRDNAENTVYLQMNSLKPEDTAVYTCAAELTNRNPGAYYYTWAYDYWGQGTQVTVSS
notes: also called PMP1E4; PRSV1E4
Neutralization B-1 IC50 [3]: > 10000 nM
Binding Hep2-B-1 (% control) 1:50 PE [4]: 55 % control
micro-neutralization of RSV B-1 [5]: > 10 µM
Binding Hep2-B-1 (% control) 1:200 PE [6]: 55 % control

B8: Nanobody 20B2 (VHH)
VHH: B7 VHH with G33D, S52T, L54W, P57A, T59G, Y81H, E100D, L101S, P106S, Y109V
notes: also called PMP20B2; PR5V20B2
Binding Long 1:10 PE (Fold blanc) [1]: 3 fold blanc
Neutralization Long IC50 [2]: 1760 nM
Neutralization B-1 IC50 [3]: > 10000 nM
Binding Hep2-B-1 (% control) 1:50 PE [4]: 32 % control
micro-neutralization of RSV B-1 [5]: > 10 µM
Binding Hep2-B-1 (% control) 1:200 PE [6]: 32 % control

B9: Nanobody 23E5 (VHH)
VHH: EVQLMESGGGLVQAGGSLRLSCAASGGTFSSYAMGWFRQAPGEERDFVAAIGWSGNSPYYAQFVKGRFTISRDNAKNTVHLQMNSLKPEDTAVYYCAAAHNTMGSDYEGYDYWGQGTQVTVSS
notes: also called PMP23E5; PRSV23E5
Binding Long 1:10 PE (Fold blanc) [1]: 3.4 fold blanc
Neutralization B-1 IC50 [3]: > 15000 nM
Binding Hep2-B-1 (% control) 1:50 PE [4]: 103 % control
Kd [7]: 7.9 nM
koff [7]: 0.0013 s⁻¹
kon [7]: 160000 M⁻¹ s⁻¹
Binding Hep2-B-1 (% control) 1:200 PE [6]: 82 % control
IC50 [8]: 1.73 nM

B10: Nanobody 1G8 (VHH)
VHH: EVQLVESGGGSVQAGGSLRLSCAASGGSFNRFGMGWFRRAPGKERDFVAAINLSGDTTYYVDSVQGRFTISRDNANNIMYLQMNLLKPEDTADYYCAADPDPITAWKQSGAGMDYWGKGTQVTVSS
notes: also called PMP1G8; PRSV1G8
Binding Long 1:10 PE (Fold blanc) [1]: 3.7 fold blanc
Neutralization Long IC50 [2]: 10000 nM
Neutralization B-1 IC50 [3]: > 10000 nM
Binding Hep2-B-1 (% control) 1:50 PE [4]: 73 % control
micro-neutralization of RSV B-1 [5]: > 10 µM
Binding Hep2-B-1 (% control) 1:200 PE [6]: 43 % control

B11: Nanobody 13C1 (VHH)
VHH: EVQLVESGGGLVQPGGSLRLSCEASGFTWDYYVIGWFRQAPGKEREGLSCISSDGSTTYADSVKGRFTISRDNAKNTVYLQMNSLEPEDTAVYYCATDPALGCYSGSYYPRYDYWGQGTQVTVSS
notes: also called PMP13C1; PRSV13C1
Binding Long 1:10 PE (Fold blanc) [1]: 3 fold blanc
Neutralization B-1 IC50 [3]: 11400 nM
Binding Hep2-B-1 (% control) 1:50 PE [4]: 104 % control
Binding Hep2-B-1 (% control) 1:200 PE [6]: 86 % control
IC50 [8]: 3.83 nM

B12: Nanobody 8B10 (VHH)
VHH: EVQLVESGGGLVQAGASLRLSCAASGLAFSRYAMGWFRQAPGKERESVAAISSSGDNIYYADSVKGQFTMSRDNAKSSVYLQMINLKPEDTAVYYCAATSPLFVASDYFEASRYGYWGQGTQVTVSS
notes: also called PMP8B10; PRSV8B10
Neutralization B-1 IC50 [3]: > 15000 nM
Binding Hep2-B-1 (% control) 1:50 PE [4]: 94 % control
Binding Hep2-B-1 (% control) 1:200 PE [6]: 84 % control

B13: Nanobody 1A2 (VHH)
VHH: EVQLVESGGGLVQAGGSLRLSCAASERTFSYYAMGWFRQAPGKEREFVATISRSGEWIYYKDAMKGRFTISRDNANNAVYLQMNSLQPEDTAIYYCAADSLGGFRSASDYYNTNTYAYWGQGTQVTVSS
notes: also called PMP1A2; PRSV1A2
Binding Long 1:10 PE (Fold blanc) [1]: 4 fold blanc
Neutralization B-1 IC50 [3]: 13700 nM
Binding Hep2-B-1 (% control) 1:50 PE [4]: 86 % control
Binding Hep2-B-1 (% control) 1:200 PE [6]: 66 % control
IC50 [8]: 2.9 nM

B14: Nanobody 13D1 (VHH)
VHH: EVQLVESGGGLVQPGGSLRLSCATSGFTEDYYVIGWFRQAPGKEREGVSCMSSSGDSTTYADSVKGRFTISRDNAKNMVYLQMTSLKPEDTAVYYCAADFALGCYSGSYYPRYDYWGQGTQVTVSS
notes: also called PMP13D1; PRSV13D1
Binding Long 1:10 PE (Fold blanc) [1]: 3.1 fold blanc
Neutralization B-1 IC50 [3]: 5850 nM
Binding Hep2-B-1 (% control) 1:50 PE [4]: 93 % control
Binding Hep2-B-1 (% control) 1:200 PE [6]: 75 % control
IC50 [8]: 3.37 nM

B15: Nanobody 8A1 (VHH)
VHH: EVQLVESGGGLVQPGGSLRVSCAASGFTFNDYIMGWFRQAPGKERMFIAAISGTGTIKYYGDLVRGRFTISRDNAKNTVYLRIDSLNPEDTAVYYCAARQDYGLGYRESHEYDYWGQGTQVTVSS
notes: also called PMP8A1; PRSV8A1
Binding Long 1:10 PE (Fold blanc) [1]: 3.7 fold blanc
Neutralization B-1 IC50 [3]: 12200 nM
Binding Hep2-B-1 (% control) 1:50 PE [4]: 98 % control
Binding Hep2-B-1 (% control) 1:200 PE [6]: 92 % control
IC50 [8]: 2.81 nM

B16: Nanobody 1B2 (VHH)
VHH: EVQLVESGGGLVQAGGSLRLSCAASGPTFSADTMGWFRQAPGKEREFVATIPWSGGIAYYSDSVKGRFTMSRDNAKNTVDLQMNSLKPEDTALYYCAGSSRIYIYSDSLSERSYDYWGQGTQVTVSS
notes: c-myc/His6-tagged; also called PMP1B2; PRSV1B2
Binding Long 1:10 PE (Fold blanc) [1]: 3.8 fold blanc
Neutralization B-1 IC50 [3]: 7380 nM
Binding Hep2-B-1 (% control) 1:50 PE [4]: 88 % control
Kd [7]: 0.44 nM
koff [7]: 0.00017 s⁻¹
kon [7]: 380000 M⁻¹ s⁻¹
Binding Hep2-B-1 (% control) 1:200 PE [6]: 85 % control
IC50 [8]: 2.91 nM
